Measured values reported in US9567577B2, “Expression vector comprising a polynucleotide encoding a modified glutamine synthetase and a method for preparing a target protein employing the same” (ARES TRADING S.A., priority 2012, dated 2017).

System: CHO K-1 cells
Assay: TNFR-Fc expression level by ELISA of culture broth of CHO K-1 cells transfected with the expression vectors
Format: cell-based
Conditions: inferred from TNFR-Fc expression under MSX
Experimental: In order to compare the productivity of TNFR-Fc fusion protein between the GS and DHFR gene expression systems, each of the expression vectors constructed in Example 4 was introduced into CHO K-1 cells so as to prepare each transformant.
In detail, CHO K-1 cells were cultured in a DMEM/F12 medium supplemented with 10% FBS, and 3 to 4×10^5 cells/well were inoculated into a 6 well-plate, followed by cultivation overnight. When the cells reached 80 to 90% confluence, each of the expression vectors was introduced thereto.
To achieve this, 4 μg of each of the expression vectors constructed in Example 4 and 250 μl of Opti-MEM were mixed with each other, and separately, 10 μl of Lipofectamine 2000 (Invitrogen) and 250 μl of Opti-MEM were mixed with each other. Then, each mixture was left at room temperature for 5 minutes. Subsequently, the mixtures were mixed with each other, and left at room temperature for 20 minutes.
Thereafter, the culture medium in the 6-well plate was replaced with 2 ml of Opti-MEM I media, and 500 μl of the final mixture was added to each well of the 6-well plate, followed by cultivation at 37° C. for 4 to 6 hours. The medium was replaced with the original culture medium (DMEM/F12 medium supplemented with 10% FBS), followed by further cultivation overnight. […]

B1: modified GS protein: hamster glutamine synthetase (SEQ ID NO. 4) with glycine at position 299 substituted with arginine (protein, listed as Cricetulus longicaudatus)
chain: MATSASSHLNKNIKQMYLCLPQGEKVQAMYIWVDGTGEGLRCKTRTLDCEPKCVEELPEWNFDGSSTFQSEGSNSDMYLSPVAMFRDPFRRDPNKLVFCEVFKYNRKPAETNLRHSCKRIMDMVSNQHPWFGMEQEYTLMGTDGHPFGWPSNGFPGPQGPYYCGVGADKAYGRDIVEAHYRACLYAGVKITGTNAEVMPAQWEFQIGPCEGIRMGDHLWVARFILHRVCEDFGVIATFDPKPIPGNWNGAGCHTNFSTKAMREENGLKHIEEAIEKLSKRHRYHIRAYDPKGGLDNARRLTGFHETSNINDFSAGVANRSASIRIPRTVGQEKKGYFEDRRPSANCDPFAVTEAIVRTCLLNETGDEPFQYKN
sensitivity to GS inhibitors compared with wildtype GS protein: enhanced sensitivity
